B1: USP39 (parent)
chain: TLSEAYIQIWKRRDNDETNQQGA
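Also: lentivirally expressed fusions sorted by FACS into six bins by GFP to DsRed ratio, PSI derived from sequencing read proportions per bin multiplied by bin number.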

In the data set the parent is B1. Put plainly: protein stability index of a GFP-peptide fusion (GPS, HEK-293T) (PSI 1-6); higher = more stable. The settings on record: c terminus: native.
Turning to TLSEAYIQIWERRDNDETNQQGA [K11E], the protein stability index came to 1.92. With TLSEAYIQIWPRRDNDETNQQGA [K11P] the figure was 1.72.

As to TLSEAYIQIWFRRDNDETNQQGA [K11F], the protein stability index turned out to be 2.04.

In the case of TLSEAYIQIWDRRDNDETNQQGA [K11D], the protein stability index was 1.58. With TLSEAYIQIWLRRDNDETNQQGA [K11L] the figure was 2.32. For the variant TLSEAYIQIWYRRDNDETNQQGA [K11Y], the protein stability index came to 1.44.

Consider TLSEAYIQIWKRRDNDNTNQQGA [E17N], for which the protein stability index turned out to be 1.77. Then TLSEAYIQIWKRRDNDGTNQQGA [E17G], with 2.66. As to TLSEAYIQIWKRRDNDDTNQQGA [E17D], the protein stability index was 2.79. Regarding TLSEAYIQIWKRRDNDRTNQQGA [E17R], the protein stability index is 1.63. Then TLSEAYIQIWKRRDNDYTNQQGA [E17Y], with 1.87. With TLSEAYIQIWKRRDNDTTNQQGA [E17T] the figure was 1.9; with TLSEAYIQIWKRRDNDCTNQQGA [E17C], 2.33; with TLSEAYIQIWKRRDNDATNQQGA [E17A], 1.8. With TLSEAYIQIWKRRDNDWTNQQGA [E17W], the protein stability index was found to be 2.35.

Regarding TLSEAYIQIWKRRDNDFTNQQGA [E17F], the protein stability index was 1.99. With TLSEAYIQIWKRRDNDLTNQQGA [E17L] the figure was 1.71; with TLSEAYIQIWKRRDNDHTNQQGA [E17H], 1.6. Then TLSEAYIQIWKRRDNDKTNQQGA [E17K], with 1.72; and TLSEAYIQIWKRRDNDITNQQGA [E17I], with 1.93. Then TLSEAYIQIWKRRDNDVTNQQGA [E17V], with 1.5; and TLSEAYIQIWKRRDNDQTNQQGA [E17Q], with 1.55; and TLSEAYIQIWKRRDNDPTNQQGA [E17P], with 2.4. In the case of TLSEAYIQIWKARDNDETNQQGA [R12A], the protein stability index is 2.15. With TLSEAYIQIWKERDNDETNQQGA [R12E] the figure was 2.65; with TLSEAYIQIWKNRDNDETNQQGA [R12N], 3.13.

In the case of TLSEAYIQIWKVRDNDETNQQGA [R12V], the protein stability index amounted to 1.86. Then TLSEAYIQIWKKRDNDETNQQGA [R12K], with 2.89; and TLSEAYIQIWKFRDNDETNQQGA [R12F], with 2.61. With TLSEAYIQIWKMRDNDETNQQGA [R12M] the figure was 2.1; with TLSEAYIQIWKTRDNDETNQQGA [R12T], 2.65; with TLSEAYIQIWKHRDNDETNQQGA [R12H], 1.96.

For TLSEAYIQIWKLRDNDETNQQGA [R12L], the protein stability index was 1.98. Consider TLSEAYIQIWKGRDNDETNQQGA [R12G], for which the protein stability index stood at 3.15.

Take TLSEAYIQIWKIRDNDETNQQGA [R12I]: the protein stability index was determined as 3.09. Turning to TLSEAYIQIWKYRDNDETNQQGA [R12Y], the protein stability index was determined as 1.81. With TLSEAYIQIWKCRDNDETNQQGA [R12C] the figure was 2; with TLSEAYIQIWKDRDNDETNQQGA [R12D], 3.2; with TLSEAYIQIWKWRDNDETNQQGA [R12W], 1.18. As for TLSEAYIQIWKQRDNDETNQQGA [R12Q], the protein stability index is 2.87.

Take TLSEAYIQIWKSRDNDETNQQGA [R12S]: the protein stability index was found to be 2.53. On to TLSEAYIQIWKPRDNDETNQQGA [R12P], for which the protein stability index worked out at 2.07. With TLSEAYIQIWKRRDRDETNQQGA [N15R] the figure was 2.24. Then TLSEAYIQIWKRRDWDETNQQGA [N15W], with 2.36; and TLSEAYIQIWKRRDADETNQQGA [N15A], with 2.38. For the variant TLSEAYIQIWKRRDDDETNQQGA [N15D], the protein stability index stood at 3.03. Take TLSEAYIQIWKRRDEDETNQQGA [N15E]: the protein stability index came to 3.18.

On to TLSEAYIQIWKRRDIDETNQQGA [N15I], for which the protein stability index came to 2.53. Then TLSEAYIQIWKRRDQDETNQQGA [N15Q], with 2.01; and TLSEAYIQIWKRRDYDETNQQGA [N15Y], with 1.28; and TLSEAYIQIWKRRDVDETNQQGA [N15V], with 2.12. Regarding TLSEAYIQIWKRRDHDETNQQGA [N15H], the protein stability index is 3.1. With TLSEAYIQIWKRRDGDETNQQGA [N15G] the figure was 2.68; with TLSEAYIQIWKRRDPDETNQQGA [N15P], 1.77; with TLSEAYIQIWKRRDLDETNQQGA [N15L], 1.92.

With TLSEAYIQIWKRRDMDETNQQGA [N15M], the protein stability index turned out to be 1.86. For the variant TLSEAYIQIWKRRDFDETNQQGA [N15F], the protein stability index was 2.24. With TLSEAYIQIWKRRDCDETNQQGA [N15C] the figure was 2.31. With TLSEAYIQIWKRRDKDETNQQGA [N15K] the figure was 2.51; with TLSEAYIQIWKRRDSDETNQQGA [N15S], 1.88; with TLSEAYIQIWKRRDTDETNQQGA [N15T], 1.88. In the case of TLSEAYIQIWKRRDNDETCQQGA [N19C], the protein stability index came out at 2.1. As to TLSEAYIQIWKRRDNDETMQQGA [N19M], the protein stability index came out at 2.06.

For the variant TLSEAYIQIWKRRDNDETKQQGA [N19K], the protein stability index is 2.77. Regarding TLSEAYIQIWKRRDNDETGQQGA [N19G], the protein stability index is 3.69.

For the variant TLSEAYIQIWKRRDNDETLQQGA [N19L], the protein stability index worked out at 1.79.

TLSEAYIQIWKRRDNDETYQQGA [N19Y]: the protein stability index was found to be 3.5. Then TLSEAYIQIWKRRDNDETEQQGA [N19E], with 3.9; and TLSEAYIQIWKRRDNDETRQQGA [N19R], with 2.37; and TLSEAYIQIWKRRDNDETTQQGA [N19T], with 3.51.

Consider TLSEAYIQIWKRRDNDETDQQGA [N19D], for which the protein stability index came to 4.38. With TLSEAYIQIWKRRDNDETSQQGA [N19S] the figure was 2.9; with TLSEAYIQIWKRRDNDETHQQGA [N19H], 2.75; with TLSEAYIQIWKRRDNDETPQQGA [N19P], 1.45. With TLSEAYIQIWKRRDNDETFQQGA [N19F], the protein stability index is 2.99. Take TLSEAYIQIWKRRDNDETAQQGA [N19A]: the protein stability index was found to be 2.38. Take TLSEAYIQIWKRRDNDETWQQGA [N19W]: the protein stability index amounted to 2.61. Then TLSEAYIQIWKRRDNDETQQQGA [N19Q], with 2.85; and TLSEAYIQIWKRRDNDETVQQGA [N19V], with 2.32. Then TLSEAYIQIWKRRDNNETNQQGA [D16N], with 2.67. With TLSEAYIQIWKRRDNTETNQQGA [D16T] the figure was 1.98.

Take TLSEAYIQIWKRRDNIETNQQGA [D16I]: the protein stability index stood at 1.95.

On to TLSEAYIQIWKRRDNQETNQQGA [D16Q], for which the protein stability index was 2.22. In the case of TLSEAYIQIWKRRDNLETNQQGA [D16L], the protein stability index came out at 2.61. With TLSEAYIQIWKRRDNAETNQQGA [D16A] the figure was 2.1. Turning to TLSEAYIQIWKRRDNHETNQQGA [D16H], the protein stability index came out at 1.63. As for TLSEAYIQIWKRRDNYETNQQGA [D16Y], the protein stability index was found to be 2.9. Then TLSEAYIQIWKRRDNMETNQQGA [D16M], with 2.93. TLSEAYIQIWKRRDNSETNQQGA [D16S]: the protein stability index was 2.22. Then TLSEAYIQIWKRRDNEETNQQGA [D16E], with 2.14; and TLSEAYIQIWKRRDNKETNQQGA [D16K], with 2.32. Then TLSEAYIQIWKRRDNRETNQQGA [D16R], with 1.66; and TLSEAYIQIWKRRDNCETNQQGA [D16C], with 2.54; and TLSEAYIQIWKRRDNPETNQQGA [D16P], with 1.29.

Take TLSEAYIQIWKRRDNGETNQQGA [D16G]: the protein stability index came to 1.65. With TLSEAYIQIWKRRDNWETNQQGA [D16W] the figure was 3.13; with TLSEAYIQIWKRRDNFETNQQGA [D16F], 1.51.

The values are drawn from the supplement of paper PMC10567573.
